B1: Golgi resident protein GCP60 (Homo sapiens), Q9H3P7 (parent)
chain: MAAVLNAERLEVSVDGLTLSPDPEERPGAEGAPLLPPPLPPPSPPGSGRGPGASGEQPEPGEAAAGGAAEEARRLEQRWGFGLEELYGLALRFFKEKDGKAFHPTYEEKLKLVALHKQVLMGPYNPDTCPEVGFFDVLGNDRRREWAALGNMSKEDAMVEFVKLLNRCCHLFSTYVASHKIEKEEQEKKRKEEEERRRREEEERERLQKEEEKRRREEEERLRREEEERRRIEEERLRLEQQKQQIMAALNSQTAVQFQQYAAQQYPGNYEQQQILIRQLQEQHYQQYMQQLYQVQLAQQQAALQKQQEVVVAGSSLPTSSKVNATVPSNMMSVNGQAKTHTDSSEKELEPEAAEEALENGPKESLPVIAAPSMWTRPQIKDFKEKIQQDADSVITVGRGEVVTVRVPTHEEGSYLFWEFATDNYDIGFGVYFEWTDSPNTAVSVHVSESSDDDEEEEENIGCEEKAKKNANKPLLDEIVPVYRRDCHEEVYAGSHQYPGRGVYLLKFDNSYSLWRSKSVYYRVYYTR
partner: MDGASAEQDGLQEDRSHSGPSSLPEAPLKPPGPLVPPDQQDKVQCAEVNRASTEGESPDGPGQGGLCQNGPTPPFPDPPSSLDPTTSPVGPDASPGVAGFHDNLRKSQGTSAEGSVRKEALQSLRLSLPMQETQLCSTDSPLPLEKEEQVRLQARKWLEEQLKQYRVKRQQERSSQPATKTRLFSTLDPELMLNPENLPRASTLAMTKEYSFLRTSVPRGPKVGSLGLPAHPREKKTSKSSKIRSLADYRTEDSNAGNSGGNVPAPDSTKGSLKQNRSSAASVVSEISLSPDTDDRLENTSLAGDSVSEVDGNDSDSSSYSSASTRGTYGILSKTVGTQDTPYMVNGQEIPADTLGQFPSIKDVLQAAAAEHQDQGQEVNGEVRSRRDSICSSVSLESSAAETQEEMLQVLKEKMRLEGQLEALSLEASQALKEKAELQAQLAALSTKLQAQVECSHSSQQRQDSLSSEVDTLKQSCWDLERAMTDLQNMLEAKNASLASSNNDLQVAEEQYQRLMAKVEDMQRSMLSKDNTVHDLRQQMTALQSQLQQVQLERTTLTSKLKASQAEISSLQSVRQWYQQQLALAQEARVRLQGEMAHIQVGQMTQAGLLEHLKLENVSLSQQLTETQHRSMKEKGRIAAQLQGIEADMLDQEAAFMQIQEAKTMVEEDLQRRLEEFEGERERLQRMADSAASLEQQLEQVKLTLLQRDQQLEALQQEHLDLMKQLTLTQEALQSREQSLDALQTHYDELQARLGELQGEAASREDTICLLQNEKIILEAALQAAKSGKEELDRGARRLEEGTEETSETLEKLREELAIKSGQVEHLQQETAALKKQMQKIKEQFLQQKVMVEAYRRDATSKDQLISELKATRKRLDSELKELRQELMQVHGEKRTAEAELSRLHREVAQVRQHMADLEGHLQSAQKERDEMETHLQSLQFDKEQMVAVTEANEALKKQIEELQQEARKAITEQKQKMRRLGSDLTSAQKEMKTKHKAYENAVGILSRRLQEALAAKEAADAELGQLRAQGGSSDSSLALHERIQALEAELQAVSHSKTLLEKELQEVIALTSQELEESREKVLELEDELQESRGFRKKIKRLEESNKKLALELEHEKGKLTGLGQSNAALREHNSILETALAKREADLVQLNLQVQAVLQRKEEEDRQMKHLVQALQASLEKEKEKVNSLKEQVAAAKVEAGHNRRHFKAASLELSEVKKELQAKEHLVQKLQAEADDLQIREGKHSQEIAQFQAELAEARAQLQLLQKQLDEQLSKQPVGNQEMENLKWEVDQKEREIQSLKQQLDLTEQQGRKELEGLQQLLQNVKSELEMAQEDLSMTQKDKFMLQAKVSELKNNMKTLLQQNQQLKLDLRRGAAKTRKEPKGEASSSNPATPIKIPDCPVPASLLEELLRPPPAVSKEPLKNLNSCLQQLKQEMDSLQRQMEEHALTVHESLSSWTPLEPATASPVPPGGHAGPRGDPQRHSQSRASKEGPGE

Variants of: B1
Details: with goga3_human GOLGA3, Q08378

| effect of a mutation on the interaction | Variant |
| --- | --- |
| disrupting interaction | C463S |

— IntAct's records for PubMed 17711851
